Test in all cases: cell-based or functional assay
Experiment [1] concerns the target Hemagglutinin of influenza virus A/Aichi/02/1968-PR8-X31 (H3N2) (Influenza A virus A/Aichi/02/1968-PR8-X31 (H3N2)) (UniProt P03437).
The target in experiment [2] is Hemagglutinin of influenza virus A/Shanghai/01/2013-PR8 (H7N9) (Influenza A virus A/Shanghai/01/2013-PR8 (H7N9)).
The target of experiment [3] is Hemagglutinin of influenza virus A/Philippines/01/1982 (H3N2) (Influenza A virus A/Philippines/01/1982 (H3N2)).

Bounds are passed on as bounds.

B1: H1H14612N2 (antibody, V domains shown)
VH: EVQLVESGGGLVKPGGSLRLSCAASGFSFSGFSMNWVRQAPGKGLEWVSSISTSGNYMYYADSVKGRFTISRDNAKKSFSLQMNSLRAEDSAIYYCARGGGYNWNLFDYWGQGSLVTVSS
VL: EIVLTQSPGTLSLSPGERATLSCRASQSLNSNYLAWYQQKPGQAPRLLIYGASSRATGIPDRFSGSGSGADFTLTISRLESEDFAVYYCQQYGNSPLTFGGGTKVEIK
On to B1, for which, in experiment [1], the EC50, complement-dependent cytotoxicity of virus-infected MDCK cells was 126 nM; the IC50 of neutralization, cell viability microneutralization assay on MDCK cells is 5.7 nM; the maximum lysis, complement-dependent cytotoxicity of virus-infected MDCK cells came out at 86.3%. Further, in experiment [2], the IC50 of neutralization, cell viability microneutralization assay on MDCK cells is above 6670 nM. Also, the IC50 of neutralization, cell viability microneutralization assay on MDCK cells in experiment [3] was determined as 37.6 nM.

The values above are taken from US20210371505A1.
